# Source: article PMC4646777 (Science Advances, 2015)
# Numbering of substitutions follows the chain as printed.
# B1: OsTPR2 TOPLESS domain (TPD), TPR2(1–210), tag removed (domain or fragment, rice, UniProt Q5NBT9 1-210, looked up)
# chain: MSSLSRELVFLILQFLDEEKFKETVHKLEQESGFFFNMKYFEEKVHAGEWDEVEKYLSGFTKVDDNRYSMKIFFEIRKQKYLEALDRHDRAKAVDILVKDLKVFSTFNEELYKEITQLLTLENFRENEQLSKYGDTKSARSIMLIELKKLIEANPLFREKLVFPTLKASRLRTLINQSLNWQHQLCKNPRPNPDIKTLFTDHTCTPPNGA
# B2: OsTPL TOPLESS domain (TPD), TPL(1–209), tag removed (domain or fragment, rice, UniProt Q0J7U6 1-209, looked up)
# chain: MSSLSRELVFLILQFLDEEKFKETVHKLEQESAFYFNMKHFEDLVQGGEWDEVEKYLSGFTKVEDNRYSMKIFFEIRKQKYLEALDRHDRAKAVEILVKDLKVFASFNEELFKEITQLLTLENFRQNEQLSKYGDTKSARNIMLMELKKLIEANPLFRDKLNFPPFKVSRLRTLINQSLNWQHQLCKNPRPNPDIKTLFTDHSCAAPTN
# B3: OsTPR1 TOPLESS domain (TPD), TPR1(1–209), tag removed (domain or fragment, rice, UniProt Q10NY2 1-209, looked up)
# chain: MSSLSRELVFLILQFLDEEKFKETVHKLEQESGFYFNMKYFEDEVINGNWDEVERYLGGFTKVDDNRYSMKIFFEIRKQKYLEALDKHDRSKAVEILVKDLKVFASFNEELFKEITQLLTLENFRENEQLSKYGDTKSARAIMLVELKKLIEANPLFRDKLQFPNLKSSRLRTLINQSLNWQHQLCKNPRPNPDIKTLFVDHSCGQPNG
# B4: Arabidopsis TPL TOPLESS domain (TPD), TPL(1–209), tag removed (domain or fragment, UniProt Q94AI7 1-209, looked up)
# chain: MSSLSRELVFLILQFLDEEKFKETVHKLEQESGFFFNMKYFEDEVHNGNWDEVEKYLSGFTKVDDNRYSMKIFFEIRKQKYLEALDKHDRPKAVDILVKDLKVFSTFNEELFKEITQLLTLENFRENEQLSKYGDTKSARAIMLVELKKLIEANPLFRDKLQFPTLRNSRLRTLINQSLNWQHQLCKNPRPNPDIKTLFVDHSCGPPNG
# B5: Arabidopsis TPR1 TOPLESS domain (TPD), TPR1(1–209), tag removed (domain or fragment, UniProt Q0WV90 1-209, looked up)
# chain: B4 chain with K87R, N168T, G205R, P206L, G209D
# B6: Arabidopsis TPR2 TOPLESS domain (TPD), TPR2(1–209), tag removed (domain or fragment, UniProt Q9LRZ0 1-209, looked up)
# chain: MSSLSRELVFLILQFLDEEKFKESVHKLEQESGFFFNIKYFEEKALAGEWDEVEKYLSGFTKVDDNRYSMKIFFEIRKQKYLEALDRNDRAKAVEILAKDLKVFATFNEELYKEITQLLTLENFRENEQLSKYGDTKSARSIMYTELKKLIEANPLFREKLAFPSFKASRLRTLINQSLNWQHQLCKNPRPNPDIKTLFLDHSCSPSNG
# B7: Arabidopsis TPR3 TOPLESS domain (TPD), TPR3(1–209), tag removed (domain or fragment, UniProt Q84JM4 1-209, looked up)
# chain: MSSLSRELVFLILQFLEEEKFKESVHRLEKESGFFFNTKYFDEKVLAGEWDDVETYLSGFTKVDDNRYSMKIFFEIRKQKYLEALDRQEKAKAVEILVQDLRVFSTFNEELYKEITQLLTLQNFRENEQLSKYGDTKTARGIMLGELKKLIEANPLFRDKLMFPTLRSSRLRTLINQSLNWQHQLCKNPRPNPDIKTLFTDHTCTLPNG
# B8: Arabidopsis TPR4 TOPLESS domain (TPD), TPR4(1–209), tag removed (domain or fragment, UniProt Q27GK7 1-209, looked up)
# chain: MSSLSRELVFLILQFLDEEKFKDTVHRLEKESGFFFNMRYFEDSVTAGEWDDVEKYLSGFTKVDDNRYSMKIFFEIRKQKYLEALDKKDHAKAVDILVKELKVFSTFNEELFKEITMLLTLTNFRENEQLSKYGDTKSARGIMLGELKKLIEANPLFRDKLQFPSLKNSRLRTLINQSLNWQHQLCKNPRPNPDIKTLFVDHTCGHPNG
# Key:
# [1] = target: TraM-NINJA EAR fusion protein (tetrameric), untagged (not stated | Arabidopsis); experiment: SEC
# [2] = target: H6-tagged OsTPR2 N-terminal domain (TPD), TPR2(1–210) (rice) (UniProt Q5NBT9); experiment: AlphaScreen or HTRF
# [3] = target: T1, H6-tagged OsTPR2 N-terminal domain (TPD), TPR2(1–210) (rice, UniProt Q5NBT9 1-210); experiment: AlphaScreen or HTRF
# T1 sequence (looked up): B1 chain
# crystal structure = target: the molecule itself; experiment: crystal structure
# SEC = target: the molecule itself; experiment: SEC
Molecule,stoichiometry N (SEC),further results
"TraM-NINJA EAR fusion protein (tetrameric), untagged",–,stoichiometry N [1]: 4; IC50 [2]: 0.16 µM
"DNGLELSLGLSC [monomeric NINJA EAR motif peptide (12 amino acids, untagged)]",–,IC50 [3]: 38 µM
B1,–,stoichiometry N (crystal structure): 4
B2,4,–
B3,4,–
B4,4,–
B5,4,–
B6,4,–
B7,4,–
B8,4,–
